Measurements taken from US20210380679A1 (INHIBRX BIOSCIENCES, published 2021).

T1: human DLL3 (Delta-like ligand 3) (human, UniProt Q9NYJ7 27-618)
T1 construct: endogenous on SHP-77 cells; also called cell-surface DLL3
T1 sequence: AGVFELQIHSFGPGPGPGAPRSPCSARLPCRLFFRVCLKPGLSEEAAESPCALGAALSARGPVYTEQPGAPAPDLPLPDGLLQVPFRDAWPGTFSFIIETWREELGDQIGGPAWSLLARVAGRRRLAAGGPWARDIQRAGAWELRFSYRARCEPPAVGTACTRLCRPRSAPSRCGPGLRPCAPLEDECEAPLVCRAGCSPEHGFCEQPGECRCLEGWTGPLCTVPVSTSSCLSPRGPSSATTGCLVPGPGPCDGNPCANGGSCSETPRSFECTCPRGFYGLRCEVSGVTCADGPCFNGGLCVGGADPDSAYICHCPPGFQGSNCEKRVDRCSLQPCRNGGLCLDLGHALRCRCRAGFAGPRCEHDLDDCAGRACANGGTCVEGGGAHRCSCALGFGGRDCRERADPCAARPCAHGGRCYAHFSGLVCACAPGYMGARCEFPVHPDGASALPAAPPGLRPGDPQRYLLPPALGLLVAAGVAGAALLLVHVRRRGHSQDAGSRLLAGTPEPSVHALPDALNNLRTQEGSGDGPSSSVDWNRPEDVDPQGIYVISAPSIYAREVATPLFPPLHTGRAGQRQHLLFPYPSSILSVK


target: T1, human DLL3 (Delta-like ligand 3); assay: flow cytometry, sdAb-Fc titrated on SHP-77 cells (DLL3 positive), APC anti-human Fc secondary
Description: (§1) Specificity and relative affinity were assessed for purified sdAb-Fcs on DLL3-expressing cells. […] A titration series of the fusion protein was incubated with the DLL3-expressing cell lines (approximately 2.5×10⁴ to 5×10⁴ cells/well) for 30 minutes at 4 degrees Celsius in FACS Buffer (PBS 1% BSA, 0.1% NaN₃ pH 7.4) in 96-well plates. Following three wash steps in FACS buffer, an APC-conjugated anti-human Fcγ specific secondary antibody (Jackson ImmunoResearch) was added and incubated for 30 minutes at 4 degrees Celsius. Following three additional wash steps in FACS buffer bound antibody was detected via flow cytometry (IQue Intellicyte).

Row | Binder | EC50 (read off the curve) | binding result
1 | 6B4 (Fc fusion, tested as VHH-human Fc; Fc not specified) VHH: QVTLRESGGGLVQAGGSLRLSCGASEITLSDKTVGWYRQAPGKQRVLVAVISNVDSTNYAHSVKGRFTISRDNAKNTVYLQMNSLKPEDTAVYYCYARDFEAEYWGQGTLVTVKP |  | binds
2 | L6F1 (Fc fusion, tested as VHH-human Fc; Fc not specified) VHH: QVQLVQSGGGLVQAGGSLRLSCGASEIIFSDKTVGWYRQAPGKQRVLVAVISNVDSTNYAQSVKGRFTISRDNAKNTVYLQMNSLKPEDTAVYYCYARDFESEYWGRGTQVTVKP |  | binds
3 | L8E7 (Fc fusion, tested as VHH-human Fc; Fc not specified) VHH: EVQLQESGGGLVQAGGSLRLSCGPSEIITSDKSVGWWRQAPGKQRNLVAGISNVGSTNYAQSVKGRFTISRDNAKNTLFLQMNSLKPEDTAVYYCYARDFENEYWGRGTQVTVKP |  | binds

Other lines, results leading:

Row | EC50 (read off the curve) | binding result | Binder
4 | ~0.06 nM |  | 3B4 (Fc fusion, tested as VHH-human Fc; Fc not specified) VHH: QVQLQQSGGGLVQAGGSLRLSCAASGSDFSINAMGWYRQGELVAGFTGDGNPIYADSVKGRFTISRGNAENTVSLQMNSLKPEDTAVYYCAADVKIGGDYEWYWGQGTQVTVKP
5 |  | binds | L10D9 (Fc fusion, tested as VHH-human Fc) VHH: EVQLVQSGGGLVQAGGSLRLSCAASGSILSINAMGWYRQPPGKQREMVAGFTGDGNTIYADSVKGRFTISRDNAKNTVYLQMNSLKPEDTAVYYCAADVQLFSRDYEFYWGQGTQVTVKP
6 |  | binds | 3B12 (Fc fusion, tested as VHH-human Fc; Fc not specified) VHH: QVQLQESGGGLVQSGGSLRLSCAASGFSLDDYTIGWFRQAPGKEREGVSCISSSGGSTYYADSVKGRFTISRDNAENTVYLQMNSLKPEDTAVYYCATYCPVTIADELGFDYWGQGTLVTVKP

target: T1, human DLL3 (Delta-like ligand 3); assay: flow cytometry, sdAb-Fc titrated on 293FS cells transfected with DLL3 (panel title DLL3-FL), APC anti-human Fc secondary
Description: FIGS. 2A-L set forth a series of graphs depicting the ability of sdAb and humanized variants thereof targeting DLL3 to bind cell surface DLL3.
as §1

Row | Binder | EC50 (read off the curve) | binding result
7 | hz5A8v5 (Fc fusion, tested as VHH-human Fc; Fc not specified) VHH: EVQLVESGGGEVQPGGSLRLSCAASGSIFSINAMGWYRQAPGKQRELVAVVSSDGRTTVAPSVKGRFTISRDNAKNTVYLQMSSLRAEDTGVYYCGVREWYSDSDWRDYEGQGTLVTVKP | ~3 nM | 
8 | hz8E7v8 (Fc fusion, tested as VHH-human Fc; Fc not specified) VHH: EVQLVESGGGEVQPGGSLRLSCGPSEIITSDKSVGWYRQAPGKQRNLVAGISNVGSTNYAQSVKGRFTISRDNAKNTLYLQMSSLRAEDTAVYYCYARDFENEYWGQGTLVTVKP |  | binds
9 | hz8E7v10 (Fc fusion, tested as VHH-human Fc; Fc not specified) VHH: EVQLVESGGGEVQPGGSLRLSCGPSEIITSDKSVGWWRQAPGKQRELVAGISNVGSTNYAQSVKGRFTISRDNAKNTLYLQMSSLRAEDTAVYYCYARDFENEYWGQGTLVTVKP |  | binds
10 | hz8E7v6 (Fc fusion, tested as VHH-human Fc; Fc not specified) VHH: EVQLVESGGGEVQPGGSLRLSCGPSEIIFSDKSVGWWRQAPGKQRNLVAGISNVGSTNYAQSVKGRFTISRDNAKNTLYLQMSSLRAEDTAVYYCYARDFENEYWGQGTLVTVKP |  | binds
11 | hz8E7v9 (Fc fusion, tested as VHH-human Fc; Fc not specified) VHH: EVQLVESGGGEVQPGGSLRLSCGPSEIITSDKSVGWVRQAPGKQRNLVAGISNVGSTNYAQSVKGRFTISRDNAKNTLYLQMSSLRAEDTAVYYCYARDFENEYWGQGTLVTVKP |  | binds

Second part, the binder after the results:

Row | EC50 (read off the curve) | binding result | Binder
12 | ~10 nM |  | L5A8 (Fc fusion, tested as VHH-human Fc; Fc not specified) VHH: QVQLVQSGGGLVQAGESLRLSCAASGSIFSINAMGWYRQVLGKQRELVAVVSSDGRTTVAPSVKGRFTISRDNAKNTVSLQMNSLKPEDTGVYYCGVREWYSDSDWRDYEGQGTQVTVKP
13 |  | binds | hz8E7v11 (Fc fusion, tested as VHH-human Fc; Fc not specified) VHH: EVQLVESGGGEVQPGGSLRLSCGPSEIITSDKSVGWFRQAPGKQRNLVAGISNVGSTNYAQSVKGRFTISRDNAKNTLYLQMSSLRAEDTAVYYCYARDFENEYWGQGTLVTVKP
14 |  | binds | hz8E7v5 (Fc fusion, tested as VHH-human Fc; Fc not specified) VHH: EVQLVESGGGEVQPGGSLRLSCGPSEIITSDKSVGWWRQAPGKQRNLVAGISNVGSTNYAQSVKGRFTISRDNAKNTVYLQMSSLRAEDTAVYYCYARDFENEYWGQGTLVTVKP

target: T1, human DLL3 (Delta-like ligand 3); assay: flow cytometry, SHP-77 cells

Row | Binder | binding result
15 | hz5A8v10 (Fc fusion, tested as VHH-human Fc; Fc not specified) VHH: EVQLVESGGGEVQPGGSLRLSCAASGSIFSINAMGWYRQAPGKQRELVAVVSSDARTTVAPSVKGRFTISRDNAKNTVYLQMSSLRAEDTAVYYCGVREWYSDADWRDYEGQGTLVTVKP | binds
16 | hz5A8v11 (Fc fusion, tested as VHH-human Fc; Fc not specified) VHH: EVQLVESGGGEVQPGGSLRLSCAASGSIFSINAMGWYRQAPGKQREWVAVVSSDGRTTVAPSVKGRFTISRDNAKNTVYLQMSSLRAEDTAVYYCGVREWYSDSDWRDYEGQGTLVTVKP | binds
17 | hz8E7v13 (Fc fusion, tested as VHH-human Fc; Fc not specified) VHH: EVQLVESGGGEVQPGGSLRLSCGPSEIITSDKSMGWWRQAPGKQRNLVAGISNVGSTNYAQSVKGRFTISRDNAKNTVYLQMSSLRAEDTAVYYCYARDFENEYWGQGTLVTVKP | binds
18 | hz8E7v16 (Fc fusion, tested as VHH-human Fc; Fc not specified) VHH: EVQLVESGGGEVQPGGSLRLSCGPSEIITSDKSMGWVRQAPGKQRNLVAGISNVGSTNYAQSVKGRFTISRDNAKNTVYLQMSSLRAEDTAVYYCYARDFENEYWGQGTLVTVKP | binds
19 | hz8E7v14 (Fc fusion, tested as VHH-human Fc; Fc not specified) VHH: EVQLVESGGGEVQPGGSLRLSCGPSEIITSDKSVGWVRQAPGKQRNLVAGISNVGSTNYAQSVKGRFTISRDNAKNTVYLQMSSLRAEDTAVYYCYARDFENEYWGQGTLVTVKP | binds

Further lines, results first:

Row | binding result | Binder
20 | binds | hz5A8v12 (Fc fusion, tested as VHH-human Fc; Fc not specified) VHH: EVQLVESGGGEVQAGGSLRLSCAASGSIFSINAMGWYRQAPGKQRELVAVVSSDGRTTVAPSVKGRFTISRDNAKNTVYLQMSSLRAEDTAVYYCGVREWYSDSDWRDYEGQGTLVTVKP
21 | binds | hz8E7v15 (Fc fusion, tested as VHH-human Fc; Fc not specified) VHH: EVQLVESGGGEVQPGGSLRLSCGPSEIITSDKSMGWVRQAPGKQRNLVAGISNVGSTNYAQSVKGRFTISRDNAKNTLYLQMSSLRAEDTAVYYCYARDFENEYWGQGTLVTVKP
